Measured values published in US20220251222A1 (Johns Hopkins, published 2022).

T1: IL-6R on IL-6-responsive HepG2 cells (UniProt P08887 20-468, limits assumed)
T1 sequence (looked up): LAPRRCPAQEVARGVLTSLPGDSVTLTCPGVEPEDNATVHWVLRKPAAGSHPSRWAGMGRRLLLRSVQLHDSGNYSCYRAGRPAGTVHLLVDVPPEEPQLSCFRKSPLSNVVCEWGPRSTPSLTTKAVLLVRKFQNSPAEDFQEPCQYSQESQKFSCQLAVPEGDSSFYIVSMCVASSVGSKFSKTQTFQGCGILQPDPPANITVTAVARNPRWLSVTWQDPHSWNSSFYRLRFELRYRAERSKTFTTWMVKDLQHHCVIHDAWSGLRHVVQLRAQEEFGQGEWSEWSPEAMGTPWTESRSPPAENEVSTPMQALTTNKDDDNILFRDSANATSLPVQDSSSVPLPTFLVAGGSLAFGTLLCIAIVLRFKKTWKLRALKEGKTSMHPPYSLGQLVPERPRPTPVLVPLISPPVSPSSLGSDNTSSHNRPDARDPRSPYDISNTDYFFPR

T2: IL-6Rα expressed on lentivirally transduced HEK 293T cells (UniProt P08887 20-468, limits assumed)
T2 construct: whole, on cells; also called IL-6Rα^+ cells; IL-6Rα^+/IL-8R^- HEK 293T cells
T2 sequence (looked up): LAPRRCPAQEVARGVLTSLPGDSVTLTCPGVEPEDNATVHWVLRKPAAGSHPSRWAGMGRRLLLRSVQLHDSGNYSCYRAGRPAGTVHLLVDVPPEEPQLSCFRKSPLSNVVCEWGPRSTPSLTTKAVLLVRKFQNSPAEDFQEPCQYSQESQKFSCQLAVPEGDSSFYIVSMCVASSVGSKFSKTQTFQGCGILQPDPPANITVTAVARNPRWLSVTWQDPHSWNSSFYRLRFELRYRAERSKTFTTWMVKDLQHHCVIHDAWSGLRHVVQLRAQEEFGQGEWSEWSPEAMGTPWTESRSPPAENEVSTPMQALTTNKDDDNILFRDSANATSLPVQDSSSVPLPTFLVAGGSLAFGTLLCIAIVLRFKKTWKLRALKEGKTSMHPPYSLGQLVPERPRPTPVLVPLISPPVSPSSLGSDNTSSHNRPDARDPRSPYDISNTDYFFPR

T3: human IL-6Rα extracellular domain (ECD), residues 89-303 of the mature protein, with C-terminal biotin … (human, UniProt P08887 108-322, biotinylated with BirA ligase on the biotin acceptor peptide)
T3 construct: range 89-303; The range 89-303 counts on the mature protein, not on the precursor; Any linkers between the ECD, BAP and His tag are not described; also called IL-6Rα ECD; recombinant IL-6Rα
T3 sequence: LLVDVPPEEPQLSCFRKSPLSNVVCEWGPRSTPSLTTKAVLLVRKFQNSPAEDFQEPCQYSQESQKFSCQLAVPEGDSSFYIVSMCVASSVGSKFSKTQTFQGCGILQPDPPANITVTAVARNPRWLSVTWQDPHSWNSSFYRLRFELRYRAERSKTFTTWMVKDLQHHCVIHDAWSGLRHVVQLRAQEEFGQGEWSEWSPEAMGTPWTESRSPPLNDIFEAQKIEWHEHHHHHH


How the values were obtained:
[1] = molecular target: T1, IL-6R on IL-6-responsive HepG2 cells; assay: cell-based or functional assay
[2] = molecular target: T2, IL-6Rα expressed on lentivirally …; assay: competition with 100 nM biotinylated IL-6 on IL-6Rα+/IL-8R- HEK 293T cells, flow cytometry
Description: IL-6Rα⁺/IL-8R⁻ and IL-6Rα⁻/IL-8R⁺ HEK 293T cells were cultured as previously described, and were trypsinized, resuspended in PBSA, and aliquoted into 96-well plates (2×10⁵ cells per well). IL-6Rα⁺/IL-8R⁻ 293T cells were incubated with titrations of various monoclonal or bispecific antibodies in the presence of saturating concentration of biotinylated IL-6 (100 nM) (Acro Biosystem, cat #: IL6-H8218-25UG) for 2 hr at 4° C. with rotation. Cells were then washed and incubated with 1:200 dilution of Alexa Fluor 647-conjugated streptavidin (Fisher Scientific, cat #: S21374) in PBSA for 15 min at 4° C. After a final wash, cells were resuspended in PBSA and analyzed on a CytoFLEX flow cytometer (Beckman Coulter). Curves were fitted to a first-order logistic model and IC₅₀ values were calculated using GraphPad Prism data analysis software. Mean fluorescence intensity (MFI) of unstimulated cells was subtracted. Similarly, IL-6Rα⁻/IL-8R⁺ 293T cells were incubated with titrations of various monoclonal or bispecific antibodies with saturating concentration of His-tagged IL-8 (400 nM) (Sino Biological, cat #: 10098-H08Y-100) for 2 hr at 4° C. with rotation. […] After a final wash, cells were resuspended in PBSA and analyzed on a CytoFLEX flow cytometer (Beckman Coulter). Curves were fitted to a first-order logistic model and IC₅₀ values were calculated using GraphPad Prism data analysis software. […]

[3] = molecular target: T3, human IL-6Rα extracellular domain …; assay: competition: antibody against 300 nM biotinylated IL-6Rα ECD binding to IL-6-displaying yeast, flow cytometry
Description: Approximately 1×10⁵ human IL-6-displaying yeast per well were plated in a 96-well plate and washed with PBSA. Yeast cells were incubated with saturating concentrations of biotinylated human IL-6Rα (300 nM) and serial dilutions of unlabeled competitor antibody (either the anti-IL-6R antibody tocilizumab, the anti-IL-8R antibody 10H2, BS1, or BS2) in PBSA for 2 hours at room temperature. Cells were then washed and stained with a 1:200 dilution of Alexa647-conjugated streptavidin (Thermo) in PBSA for 15 min at 4° C. Cells were washed again and assessed for human IL-6Rα binding on a CytoFLEX flow cytometer (Beckman Coulter). Background-subtracted fluorescent signal as a fraction of receptor subunit binding in the absence of competitor antibody was plotted. Curves were fitted to a first order logistic model and half maximal inhibitory concentrations (IC₅₀s) were computed using GraphPad Prism. Assays were performed in triplicate and repeated two times with consistent results.
Tocilizumab is known to compete with IL-6 for IL-6Rα engagement. Thus, bispecific binding agents containing the tocilizumab variable regions (BS1 and BS2) were also expected to obstruct cytokine binding. […] However, tocilizumab (IC₅₀=59 nM), BS1 (IC₅₀=190 nM), and BS2 (IC₅₀=78 nM) all inhibited IL-6/IL-6Rα binding.

| Binder | inhibition of IL-6-induced STAT3 phosphorylation in HepG2 cells (IC50) [1] [nM] | IC50 [2] [nM] | IC50 [3] [nM] | inhibition of IL-6 signaling (pSTAT3) in HepG2 cells (IC50) [1] [nM] |
| --- | --- | --- | --- | --- |
| BS2 bispecific antibody (scFv-IgG fusion: 10H2 IgG with tocilizumab scFv on the light chains) (bispecific antibody, Human IgG1-based) heavy: not shown light: AGSQAVVTQESALTTSPGETVTLTCRSSTGAVTTSNYANWVQEKPDHLFTGLIGGTNNRPPGVPARFSGSLIGDKAALTITGAQIEDEAIYFCALWYSNHLVFGGGTKLTVLRTVAAPSVFIFPPSDEQLKSGTASVVCLLNNFYPREAKVQWKVDNALQSGNSQESVTEQDSKDSTYSLSSTLTLSKADYEKHKVYACEVTHQGLSSPVTKSFNRGECGGGGSGGGGSEVQLQESGPGLVRPSQTLSLTCTVSGYSITSDHAWSWVRQPPGRGLEWIGYISYSGITTYNPSLKSRVTMLRDTSKNQFSLRLSSVTAADTAVYYCARSLARTTAMDYWGQGSLVTVSSGGGGSGGGGSGGGGSDIQMTQSPSSLSASVGDRVTITCRASQDISSYLNWYQQKPGKAPKLLIYYTSRLHSGVPSRFSGSGSGTDFTFTISSLQPEDIATYYCQQGNTLPYTFGQGTKVEIK | 220 | 96 | 78 |  |
| tocilizumab, recombinant monoclonal hIgG1 (anti-IL-6Rα) (antibody, V domains shown, also called anti-IL-6Rα antibody) VH: EVQLQESGPGLVRPSQTLSLTCTVSGYSITSDHAWSWVRQPPGRGLEWIGYISYSGITTYNPSLKSRVTMLRDTSKNQFSLRLSSVTAADTAVYYCARSLARTTAMDYWGQGSLVTVSS VL: DIQMTQSPSSLSASVGDRVTITCRASQDISSYLNWYQQKPGKAPKLLIYYTSRLHSGVPSRFSGSGSGTDFTFTISSLQPEDIATYYCQQGNTLPYTFGQGTKVEIK |  | 30 | 59 | 76 |
